Assay results as given in patent US9549967B2, “Regulation of sodium channels by PLUNC proteins” (The University of North Carolina at Chapel Hill, priority 2009, dated 2017).

Target: T1, ENaC (Homo sapiens, UniProt P37088+P51168+P51170)
T1 construct: endogenous in cells; host or cells: primary human bronchial epithelial cultures
T1 sequence (P37088 1-669): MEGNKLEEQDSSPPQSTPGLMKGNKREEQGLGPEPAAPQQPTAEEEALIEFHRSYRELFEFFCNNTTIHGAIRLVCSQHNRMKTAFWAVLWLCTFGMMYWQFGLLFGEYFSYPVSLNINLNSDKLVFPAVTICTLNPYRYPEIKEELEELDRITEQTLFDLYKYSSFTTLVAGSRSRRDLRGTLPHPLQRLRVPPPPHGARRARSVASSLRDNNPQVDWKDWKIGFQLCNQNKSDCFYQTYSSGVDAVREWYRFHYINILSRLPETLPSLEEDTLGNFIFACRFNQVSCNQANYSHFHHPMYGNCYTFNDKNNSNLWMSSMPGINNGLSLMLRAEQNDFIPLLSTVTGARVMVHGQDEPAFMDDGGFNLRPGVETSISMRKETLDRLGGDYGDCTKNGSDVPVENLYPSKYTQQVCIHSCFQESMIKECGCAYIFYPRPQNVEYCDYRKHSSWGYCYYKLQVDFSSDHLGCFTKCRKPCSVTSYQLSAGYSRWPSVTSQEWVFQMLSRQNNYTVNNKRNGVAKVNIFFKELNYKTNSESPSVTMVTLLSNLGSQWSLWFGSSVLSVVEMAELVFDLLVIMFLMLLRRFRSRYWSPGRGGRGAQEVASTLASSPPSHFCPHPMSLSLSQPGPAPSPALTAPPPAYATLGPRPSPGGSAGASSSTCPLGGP
T1 sequence (P51168 1-640): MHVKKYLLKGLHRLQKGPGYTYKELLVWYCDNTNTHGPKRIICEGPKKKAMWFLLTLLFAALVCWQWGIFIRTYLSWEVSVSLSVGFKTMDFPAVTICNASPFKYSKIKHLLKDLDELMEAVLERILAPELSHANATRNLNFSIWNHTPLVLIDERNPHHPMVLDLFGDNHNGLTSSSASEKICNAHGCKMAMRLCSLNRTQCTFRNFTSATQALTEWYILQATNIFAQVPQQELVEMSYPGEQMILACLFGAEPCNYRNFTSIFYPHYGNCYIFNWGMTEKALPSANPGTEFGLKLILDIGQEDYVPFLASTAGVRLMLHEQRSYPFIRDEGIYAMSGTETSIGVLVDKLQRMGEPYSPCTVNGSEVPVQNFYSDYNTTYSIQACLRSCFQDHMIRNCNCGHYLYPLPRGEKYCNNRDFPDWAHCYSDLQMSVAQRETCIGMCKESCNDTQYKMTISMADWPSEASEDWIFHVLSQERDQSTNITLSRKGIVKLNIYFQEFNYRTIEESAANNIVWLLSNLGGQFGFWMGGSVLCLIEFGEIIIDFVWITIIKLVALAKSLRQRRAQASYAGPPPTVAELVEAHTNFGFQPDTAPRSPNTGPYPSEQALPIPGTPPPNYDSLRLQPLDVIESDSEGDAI
T1 sequence (P51170 1-649): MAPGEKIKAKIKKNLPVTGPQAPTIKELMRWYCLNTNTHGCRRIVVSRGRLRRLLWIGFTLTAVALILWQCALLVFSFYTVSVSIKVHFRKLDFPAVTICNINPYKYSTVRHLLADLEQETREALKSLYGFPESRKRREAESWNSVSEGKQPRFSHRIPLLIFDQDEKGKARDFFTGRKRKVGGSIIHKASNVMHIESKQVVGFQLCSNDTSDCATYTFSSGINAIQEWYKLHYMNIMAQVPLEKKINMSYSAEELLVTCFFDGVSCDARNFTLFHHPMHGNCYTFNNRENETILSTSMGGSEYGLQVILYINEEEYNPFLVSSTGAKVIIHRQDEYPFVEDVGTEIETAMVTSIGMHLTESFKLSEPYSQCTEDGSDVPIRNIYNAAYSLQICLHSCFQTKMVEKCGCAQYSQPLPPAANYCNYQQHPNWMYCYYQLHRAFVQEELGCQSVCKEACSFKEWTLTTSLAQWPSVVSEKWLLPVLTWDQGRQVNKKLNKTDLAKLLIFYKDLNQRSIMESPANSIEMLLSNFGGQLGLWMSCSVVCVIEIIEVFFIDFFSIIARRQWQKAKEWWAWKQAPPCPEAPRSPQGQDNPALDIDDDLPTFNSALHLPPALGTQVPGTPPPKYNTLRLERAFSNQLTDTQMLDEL
Assay: Transepithelial voltage under thin film conditions in human bronchial epithelial cultures (microelectrode)
Type: cell-based

| Molecule | transepithelial voltage after mucosal trypsin (SPLUNC1-exposed group, trypsin for 30 min after 1 h rSPLUNC1 exposure) | transepithelial voltage after mucosal trypsin (control cultures, trypsin for 30 min) | regulation of the transepithelial voltage (SPLUNC1 knockdown cultures, 50 ng/ml rSPLUNC1 added to airway surface liquid) | transepithelial voltage (cultures not pre-washed, airway surface liquid accumulated for 24 h) | onset of inhibition (human bronchial epithelial cultures, FIG. 2C, 2D) [min] | rate of inhibition of the transepithelial voltage (rSPLUNC1 vs aprotinin addition, effects not additive) | transepithelial voltage, addition to amiloride-treated cultures (same amiloride-treated cultures, n=12) | transepithelial voltage (washed cultures, 20 μl Ringer containing 50 ng/ml rSPLUNC1) |
| --- | --- | --- | --- | --- | --- | --- | --- | --- |
| trypsin [reference compound] | significantly raised the transepithelial voltage | without effect | – | – | – | – | – | – |
| SPLUNC1: human SPLUNC1, 256 amino acid secreted PLUNC protein (SEQ ID NO:1); rSPLUNC1 = V5/6His-tagged protein purified from HEK293 media (protein, listed as Homo sapiens, V5/6His tag, rSPLUNC1 = V5/6His-tagged protein purified from HEK293 media) MFQTGGLIVFYGLLAQTMAQFGGLPVPLDQTLPLNVNPALPLSPTGLAGSLTNALSNGLLSGGLLGILENLPLLDILKPGGGTSGGLLGGLLGKVTSVIPGLNNIIDIKVTDPQLLELGLVQSPDGHRLYVTIPLGIKLQVNTPLVGASLLRLAVKLDITAEILAVRDKQERIHLVLGDCTHSPGSLQISLLDGLGPLPIQGLLDSLTGILNKVLPELVQGNVCPLVNEVLRGLDITLVHDIVNMLIHGLQFVIKV | – | – | restored | without further effect | 30 to 60 | identical rates | without further effect | significantly reduced the transepithelial voltage |
